What was measured:
[1] = biological target: AnkG R6-16 (UniProt O70511); assay: ITC; VP-ITC at 25 °C; 50 mM Tris, 100 mM NaCl, 1 mM EDTA, 1 mM DTT, pH 7.8; Nfasc proteins (200 μM) in the syringe, AnkG proteins (20 μM) in the cell; one-site binding model
[2] = biological target: T1, AnkG ANK repeats (residues 38-855, R1-24) (UniProt O70511 38-855); assay: as above; details: both partners purified
T1 construct: Ankyrin-G (AnkG), ANK repeats R1-24, residues 38-855; In human Q12955 the same residues seem to stand 8 lower (I277 here = I269 there); Cloned into a modified pET32a vector; the tag is said to be removed only for the crystallisation proteins; also called AnkG R1-24; Ankyrin-G ankyrin repeats; source: E. coli BL21 (DE3), purified (Ni-NTA, size-exclusion chromatography)
T1 sequence (looked up): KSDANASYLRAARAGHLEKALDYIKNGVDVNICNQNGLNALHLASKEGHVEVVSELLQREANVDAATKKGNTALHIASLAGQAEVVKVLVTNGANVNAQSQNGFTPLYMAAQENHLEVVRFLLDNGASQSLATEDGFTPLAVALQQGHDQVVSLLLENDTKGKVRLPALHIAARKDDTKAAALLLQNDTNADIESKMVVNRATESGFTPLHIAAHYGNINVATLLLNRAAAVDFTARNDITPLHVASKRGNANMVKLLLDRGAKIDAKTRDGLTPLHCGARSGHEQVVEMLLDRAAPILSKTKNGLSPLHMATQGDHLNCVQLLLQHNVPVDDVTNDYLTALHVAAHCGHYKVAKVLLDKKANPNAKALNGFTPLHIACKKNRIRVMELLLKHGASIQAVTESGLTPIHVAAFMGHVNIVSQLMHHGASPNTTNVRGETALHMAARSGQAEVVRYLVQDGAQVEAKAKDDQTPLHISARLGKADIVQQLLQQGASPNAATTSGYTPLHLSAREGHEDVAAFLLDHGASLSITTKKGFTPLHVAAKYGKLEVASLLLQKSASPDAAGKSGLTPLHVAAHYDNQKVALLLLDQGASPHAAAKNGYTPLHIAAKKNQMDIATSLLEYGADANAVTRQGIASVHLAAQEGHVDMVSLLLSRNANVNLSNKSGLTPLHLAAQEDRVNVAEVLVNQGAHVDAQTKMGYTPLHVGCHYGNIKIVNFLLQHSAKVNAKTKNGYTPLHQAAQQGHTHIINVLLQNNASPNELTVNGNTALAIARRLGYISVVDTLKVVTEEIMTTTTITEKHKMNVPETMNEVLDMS

Chain of AnkG R6-16 (O70511 whole entry, the tested form may be a part): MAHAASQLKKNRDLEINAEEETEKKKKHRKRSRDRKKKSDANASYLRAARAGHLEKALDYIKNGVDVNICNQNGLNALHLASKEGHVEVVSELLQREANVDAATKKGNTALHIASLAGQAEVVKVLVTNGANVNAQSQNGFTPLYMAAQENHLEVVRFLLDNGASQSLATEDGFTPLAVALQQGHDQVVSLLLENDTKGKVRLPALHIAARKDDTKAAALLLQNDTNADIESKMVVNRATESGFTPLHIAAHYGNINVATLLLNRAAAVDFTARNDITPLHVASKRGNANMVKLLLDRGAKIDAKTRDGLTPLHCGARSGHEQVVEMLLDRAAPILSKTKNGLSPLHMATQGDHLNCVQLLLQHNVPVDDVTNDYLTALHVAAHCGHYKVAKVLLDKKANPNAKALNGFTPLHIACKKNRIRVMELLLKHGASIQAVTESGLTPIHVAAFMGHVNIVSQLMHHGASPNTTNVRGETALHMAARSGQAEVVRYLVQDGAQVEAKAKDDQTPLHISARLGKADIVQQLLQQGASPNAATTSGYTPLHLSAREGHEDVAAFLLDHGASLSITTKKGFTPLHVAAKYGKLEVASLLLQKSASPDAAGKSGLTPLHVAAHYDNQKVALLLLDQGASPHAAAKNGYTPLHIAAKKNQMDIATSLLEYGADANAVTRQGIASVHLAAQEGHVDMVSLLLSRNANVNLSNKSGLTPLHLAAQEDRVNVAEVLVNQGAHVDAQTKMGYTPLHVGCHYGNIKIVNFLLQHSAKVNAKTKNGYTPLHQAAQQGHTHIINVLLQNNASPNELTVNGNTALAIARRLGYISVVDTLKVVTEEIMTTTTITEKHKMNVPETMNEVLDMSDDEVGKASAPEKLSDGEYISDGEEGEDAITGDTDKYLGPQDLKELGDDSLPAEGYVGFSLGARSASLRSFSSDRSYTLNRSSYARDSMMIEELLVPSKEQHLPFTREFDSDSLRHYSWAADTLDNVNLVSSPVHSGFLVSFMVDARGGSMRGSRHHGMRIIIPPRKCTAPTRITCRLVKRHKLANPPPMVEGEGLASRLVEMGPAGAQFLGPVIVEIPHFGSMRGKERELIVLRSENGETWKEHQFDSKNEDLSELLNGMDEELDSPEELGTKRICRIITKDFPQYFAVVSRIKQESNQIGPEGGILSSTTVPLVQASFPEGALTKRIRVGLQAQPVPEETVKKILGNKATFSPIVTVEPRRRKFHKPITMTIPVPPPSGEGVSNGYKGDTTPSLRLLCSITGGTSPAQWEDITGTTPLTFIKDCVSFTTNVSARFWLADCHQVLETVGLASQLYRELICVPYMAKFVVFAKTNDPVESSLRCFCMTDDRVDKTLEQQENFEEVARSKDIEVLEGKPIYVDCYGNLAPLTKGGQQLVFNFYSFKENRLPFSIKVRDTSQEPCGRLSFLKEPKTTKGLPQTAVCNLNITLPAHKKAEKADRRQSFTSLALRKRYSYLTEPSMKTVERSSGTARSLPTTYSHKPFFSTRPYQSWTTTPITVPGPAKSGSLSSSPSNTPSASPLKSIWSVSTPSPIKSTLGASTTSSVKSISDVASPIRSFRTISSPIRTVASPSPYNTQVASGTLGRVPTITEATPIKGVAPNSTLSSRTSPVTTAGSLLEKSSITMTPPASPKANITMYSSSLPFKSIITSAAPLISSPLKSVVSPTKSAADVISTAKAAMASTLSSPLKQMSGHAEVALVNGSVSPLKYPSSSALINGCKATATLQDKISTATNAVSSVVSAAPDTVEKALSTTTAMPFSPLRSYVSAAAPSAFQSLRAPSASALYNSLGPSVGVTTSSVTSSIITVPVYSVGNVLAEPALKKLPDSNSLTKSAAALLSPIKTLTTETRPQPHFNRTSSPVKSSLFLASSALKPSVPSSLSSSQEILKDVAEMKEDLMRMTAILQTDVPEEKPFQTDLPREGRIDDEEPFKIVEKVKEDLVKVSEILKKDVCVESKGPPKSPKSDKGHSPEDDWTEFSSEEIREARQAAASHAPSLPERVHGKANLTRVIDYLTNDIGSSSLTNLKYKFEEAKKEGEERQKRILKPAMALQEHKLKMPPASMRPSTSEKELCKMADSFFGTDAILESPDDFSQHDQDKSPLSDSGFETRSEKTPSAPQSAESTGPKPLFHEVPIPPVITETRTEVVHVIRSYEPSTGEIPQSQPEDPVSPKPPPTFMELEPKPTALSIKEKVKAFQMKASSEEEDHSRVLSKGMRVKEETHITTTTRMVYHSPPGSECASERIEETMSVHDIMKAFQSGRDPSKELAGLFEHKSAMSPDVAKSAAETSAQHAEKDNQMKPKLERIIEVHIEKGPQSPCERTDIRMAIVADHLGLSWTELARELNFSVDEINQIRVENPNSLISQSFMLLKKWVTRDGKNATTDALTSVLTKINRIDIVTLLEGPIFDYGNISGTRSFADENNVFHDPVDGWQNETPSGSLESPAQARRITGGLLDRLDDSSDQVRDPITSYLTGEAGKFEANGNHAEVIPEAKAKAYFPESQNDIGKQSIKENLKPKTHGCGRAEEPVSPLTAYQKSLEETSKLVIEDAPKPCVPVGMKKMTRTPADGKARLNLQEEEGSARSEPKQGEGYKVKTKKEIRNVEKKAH

B1: Nfasc ankyrin-binding domain (ABD, residues 1187-1214) (domain or fragment, UniProt P97685 1187-1214, looked up)
chain: SDDSLVDYGEGGEGQFNEDGSFIGQYTV
notes: also called Nfasc ABD; source: E. coli BL21 (DE3), purified (Ni-NTA, size-exclusion chromatography)
Kd [1]: 290 nM
Kd [2]: ~220 nM

Source: publication PMC9396398, “Crystal structure of Ankyrin-G in complex with a fragment of Neurofascin reveals binding mechanisms required for integrity of the axon initial segment” (The Journal of Biological Chemistry, 2022)
